Patent US20060134087A1, “ITI-D1 Kunitz domain mutants as hNE inhibitors” (Dyax Corp., priority 1988, published 2006)
“Also recorded” adds a separate entry of the source. Read-outs that look alike come from different tables or passages of the source.

Columns and labels:
[1] = molecular target: T1, Elastase (porcine pancreas) (Sus scrofa, UniProt P00772); conditions: BPTI P1 derivatives, cited from earlier work
T1 construct: host or cells: porcine pancreas

[2] = molecular target: T2, hCG (Homo sapiens, UniProt P08311); conditions: cited from earlier work
T2 sequence (P08311 21-255): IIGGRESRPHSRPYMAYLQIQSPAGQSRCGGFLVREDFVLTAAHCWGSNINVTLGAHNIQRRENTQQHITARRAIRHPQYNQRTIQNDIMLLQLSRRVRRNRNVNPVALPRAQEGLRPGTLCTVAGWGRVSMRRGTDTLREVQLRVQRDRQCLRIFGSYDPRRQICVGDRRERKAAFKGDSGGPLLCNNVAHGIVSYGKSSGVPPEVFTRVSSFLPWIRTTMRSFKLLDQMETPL

[3] = molecular target: T3, hNE (Homo sapiens, UniProt P08246); test: Temperature stability, residual inhibitory activity for hNE; assay type: physicochemical; design: Residual hNE Inhibitory Activity: unit not given here; conditions: for Residual hNE Inhibitory Activity: 18 hours, pH 7.0, 1 μM protein; for temperature below which full inhibitory activity is maintained: thirty minutes, 1 μM, phosphate buffer pH=7
T3 sequence (P08246 30-267): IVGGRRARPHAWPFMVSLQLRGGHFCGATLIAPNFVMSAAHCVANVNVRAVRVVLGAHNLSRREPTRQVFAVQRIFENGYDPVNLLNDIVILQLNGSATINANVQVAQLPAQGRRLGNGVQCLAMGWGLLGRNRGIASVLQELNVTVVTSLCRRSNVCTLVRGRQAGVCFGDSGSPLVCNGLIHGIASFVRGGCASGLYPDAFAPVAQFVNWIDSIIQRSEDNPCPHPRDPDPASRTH
Method: The stability of EPI-HNE proteins to temperatures in the range 0° C. to 95° C. was assessed by incubating the inhibitors for thirty minutes at various temperatures and determining residual inhibitory activity for hNE. In these experiments, protein concentrations were 1 μM in phosphate buffer at pH=7. As is shown in Table 40, the four inhibitors are quite temperature stable.
Proteins were incubated at the stated temperature for 18 hours in buffer at pH 7.0. In all cases protein concentrations were 1 μM. At the end of the incubation period, aliquots of the reactions were diluted and residual hNE-inhibition activity determined.

[4] = molecular target: T3, hNE; test: pH stability, residual hNE inhibitory activity; assay type: physicochemical; conditions: 37° C., 18 hours; for pH stability: pH 1 to pH 10, 1 μM; for Percent Residual hNE Inhibitory Activity: 1 μM protein
Method: The stability of the proteins to exposure to pH conditions in the range of pH 1 to pH 10 was assessed by maintaining the inhibitors in buffers of defined pH at 37° C. for 18 hours and determining the residual hNE inhibitory activity in the standard hNE-inhibition assay. Proteins were incubated at a concentration of 1 μM. The buffers shown in Table 4 were formulated as described (STOL90) and used in the pH ranges indicated: […]
Proteins were incubated at 37° C. for 18 hours in buffers of defined pH (see text). In all cases protein concentrations were 1 μM. At the end of the incubation period, aliquots of the reactions were diluted and residual hNE-inhibition activity determined.

[5] = molecular target: T3, hNE; test: Resistance to oxidative inactivation by Chloramine-T, residual hNE-inhibition activity; assay type: physicochemical; conditions: for Percent Residual hNE-Inhibitory Activity: 20 minutes at RT
Method: At the end of the incubation period, the oxidation reactions were quenched by adding methionine to a final concentration of 4 mM. After a further 10 minute incubation, the quenched reactions were diluted and assayed for residual inhibitor activity in our standard hNE-inhibition assay.
Inhibitors were incubated in the presence of Chloramine-T at the molar ratios indicated for 20 minutes at RT. Oxidation reactions were quenched by adding methionine to a final concentration of 4 mM. Residual hNE-inhibition activity remaining in the quenched reactions is shown as a percentage of the activity observed with no added oxidant.

[6] = molecular target: T3, hNE; test: Kinetic on-rate of inhibitors reacting with hNE (progressive inhibition); assay type: biochemical; conditions: for kon: [hNE] = 8.47 × 10^−10 molar; for koff: calculated from koff = KD × kon
Method: The kinetic on-rates for the inhibitors reacting with hNE (kon) were determined from measurements of progressive inhibition of substrate hydrolytic activity by hNE following addition of inhibitor. For these experiments, a known concentration of inhibitor was added to a solution of hNE (0.847 nM) and substrate (25 μM) in 2 ml of reaction buffer in a plastic fluorescence cuvette. The change in fluorescence was recorded continuously following addition of the inhibitor. […] The enzymatic rate at selected times following addition of the inhibitor was determined from the slope of the tangent to the fluorescence time course at that time.
The kinetic constant kon for EPI-HNE-2 reacting with hNE was determined as follows. EPI-HNE-2 at 1.3 nM was added to buffer containing 0.867 nM hNE (I:E=1.5:1) at time 0. Measured percent residual activity was recorded as a function of time after addition of inhibitor. A least-squares fit program was used to obtain the value of kon=4.0×10^6 M^−1s^−1.
The kinetic off rate, koff, is calculated from the measured values of Ki and kon as: […] The values from such measurements are included in Table 30. The EPI-HNE proteins are small, high affinity, fast acting inhibitors of hNE. B. Specificity.

[7] = molecular target: T4, Chymotrypsin (bovine pancreas) (Bos taurus, UniProt P00766); conditions: BPTI P1 derivatives; read-out: Dissociation constant (symbol); cited from earlier work
T4 construct: host or cells: bovine pancreas

[8] = molecular target: T5, Elastase (human leukocytes) (Homo sapiens, UniProt P08246); conditions: BPTI P1 derivatives; read-out: Dissociation constant; cited from earlier work
T5 construct: host or cells: human leukocytes
T5 sequence (P08246 30-267): T3 sequence (P08246 30-267)

[9] = molecular target: T6, Trypsin (bovine pancreas) (Bos taurus, UniProt P00760); conditions: BPTI P1 derivatives; read-out: Dissociation constant (symbol); cited from earlier work
T6 construct: host or cells: bovine pancreas
T6 sequence (P00760 24-246): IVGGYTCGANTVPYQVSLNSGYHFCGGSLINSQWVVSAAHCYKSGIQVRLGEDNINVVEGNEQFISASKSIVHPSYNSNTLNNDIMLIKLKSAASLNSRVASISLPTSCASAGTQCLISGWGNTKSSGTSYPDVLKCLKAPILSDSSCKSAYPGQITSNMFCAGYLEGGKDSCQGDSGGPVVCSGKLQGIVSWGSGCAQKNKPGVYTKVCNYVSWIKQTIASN

[10] = read-out: Dissociation constant

T1 sequence (P00772 27-266): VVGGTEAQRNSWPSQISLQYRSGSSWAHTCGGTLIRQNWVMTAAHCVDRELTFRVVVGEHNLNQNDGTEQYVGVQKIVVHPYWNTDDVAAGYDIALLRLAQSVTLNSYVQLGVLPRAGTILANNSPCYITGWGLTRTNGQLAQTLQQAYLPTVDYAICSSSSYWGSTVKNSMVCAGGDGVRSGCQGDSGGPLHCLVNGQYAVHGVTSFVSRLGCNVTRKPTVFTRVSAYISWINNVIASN

Substance | Residual hNE Inhibitory Activity ([3]; Temperature 0 ° C.) | Residual hNE Inhibitory Activity ([3]; Temperature 23 ° C.) | Residual hNE Inhibitory Activity ([3]; Temperature 37 ° C.) | Residual hNE Inhibitory Activity ([3]; Temperature 55 ° C.) | Residual hNE Inhibitory Activity ([3]; Temperature 85 ° C.) | Residual hNE Inhibitory Activity ([3]; Temperature 95 ° C.) | temperature below which full inhibitory activity is maintained [3] | pH stability [4] | Percent Residual hNE Inhibitory Activity ([4]; Incubation pH 1.0) [%] | Percent Residual hNE Inhibitory Activity ([4]; Incubation pH 2.0) [%] | Percent Residual hNE Inhibitory Activity ([4]; Incubation pH 3.0) [%] | Percent Residual hNE Inhibitory Activity ([4]; Incubation pH 4.0) [%] | Percent Residual hNE Inhibitory Activity ([4]; Incubation pH 6.0) [%] | Percent Residual hNE Inhibitory Activity ([4]; Incubation pH 7.0) [%] | Percent Residual hNE Inhibitory Activity ([4]; Incubation pH 8.0) [%] | Percent Residual hNE Inhibitory Activity ([4]; Incubation pH 9.4) [%] | Percent Residual hNE Inhibitory Activity ([4]; Incubation pH 10.0) [%] | Percent Residual hNE-Inhibitory Activity ([5]; Molar Ratio CHL-T:Inhibitor 0) [%] | kon [6] | koff [6] | also measured
Bovine pancreatic trypsin inhibitor [BPTI] | – | – | – | – | – | – | – | – | – | – | – | – | – | – | – | – | – | – | – | – | Kd ([1]; read-out: Dissociation constant (symbol)): > 3.5 µM; inhibition of Cathepsin-G ([2]; SWAI88, ODOM90): lacks; binding of hCG [2]: does not significantly bind hCG
EPI-HNE-1: BPTI-derived Kunitz domain, SEQ ID NO 007; K15I, R17F, I18F, I19P, R39M, A40G, K41N, R42G | 97 | 100 | 100 | 99 | 106 | 64 | below 90 °C | stable at all pH values tested | 102 | 100 | 100 | 98 | 100 | 93 | 96 | 100 | 98 | 100 | 3.7 10^6/M/s | 7.4 10^−6/s | Residual hNE Inhibitory Activity ([3]; Temperature 45 ° C.): 103; Residual hNE Inhibitory Activity ([3]; Temperature 65 ° C.): 94; Residual hNE Inhibitory Activity ([3]; Temperature 75 ° C.): 100; Percent Residual hNE Inhibitory Activity ([4]; Incubation pH 2.6): 101%; Percent Residual hNE Inhibitory Activity ([4]; Incubation pH 5.0): 100%; Percent Residual hNE-Inhibitory Activity ([5]; Molar Ratio CHL-T:Inhibitor 1.4): 98%; Percent Residual hNE-Inhibitory Activity ([5]; Molar Ratio CHL-T:Inhibitor 1.9): 102%; Percent Residual hNE-Inhibitory Activity ([5]; Molar Ratio CHL-T:Inhibitor 3.8): 94%; Percent Residual hNE-Inhibitory Activity ([5]; Molar Ratio CHL-T:Inhibitor 9.5): 95%; Percent Residual hNE-Inhibitory Activity ([5]; Molar Ratio CHL-T:Inhibitor 19.): 92%; Percent Residual hNE-Inhibitory Activity ([5]; Molar Ratio CHL-T:Inhibitor .48): 102%; Percent Residual hNE-Inhibitory Activity ([5]; Molar Ratio CHL-T:Inhibitor .95): 100%
EPI-HNE-4: EPI-HNE-3 with substitution A3E; SEQ ID NO 027 (EACNLPIVRGPCIAFFPRWAFDAVKGKCVLFPYGGCQGNGNKFYSEKECREYCGVP; Epi-HNE-4) | 100 | 103 | 98 | 98 | 63 | 48 | below 65 °C | stable when incubated at low pH, but showed some loss of activity at high pH; also recorded: retains almost full activity to pH 8.5 | 98 | 100 | 96 | 94 | 99 | 93 | 83 | 40 | 34 | 100 | 10.6 10^6/M/s | 49. 10^−6/s | Residual hNE Inhibitory Activity ([3]; Temperature 69 ° C.): 82; Percent Residual hNE Inhibitory Activity ([4]; Incubation pH 5.5): 109%; Percent Residual hNE Inhibitory Activity ([4]; Incubation pH 6.5): 100%; Percent Residual hNE Inhibitory Activity ([4]; Incubation pH 7.5): 109%; Percent Residual hNE Inhibitory Activity ([4]; Incubation pH 8.5): 86%; Percent Residual hNE-Inhibitory Activity ([5]; Molar Ratio CHL-T:Inhibitor 1.0): 100%; Percent Residual hNE-Inhibitory Activity ([5]; Molar Ratio CHL-T:Inhibitor 3.0): 100%; Percent Residual hNE-Inhibitory Activity ([5]; Molar Ratio CHL-T:Inhibitor 5.0): 100%; Percent Residual hNE-Inhibitory Activity ([5]; Molar Ratio CHL-T:Inhibitor 10.): 104%; Percent Residual hNE-Inhibitory Activity ([5]; Molar Ratio CHL-T:Inhibitor 30.): 100%; Percent Residual hNE-Inhibitory Activity ([5]; Molar Ratio CHL-T:Inhibitor 50.): 100%; Percent Residual hNE-Inhibitory Activity ([5]; Molar Ratio CHL-T:Inhibitor .50): 100%; hNE-inhibition activity after exposure to Chloramine-T ([5]; all molar ratios tested (up to 50:1 for EPI-HNE-3 and EPI-HNE-4)): retain essentially complete hNE-inhibition activity
alanine | – | – | – | – | – | – | – | – | – | – | – | – | – | – | – | – | – | – | – | – | Kd [7]: > 3.5 µM; Kd [8]: 0.0025 µM; Kd [9]: ≥ 3.5 µM; Kd [1, 10]: 0.028 µM
valine | – | – | – | – | – | – | – | – | – | – | – | – | – | – | – | – | – | – | – | – | Kd [7]: > 3.5 µM; Kd [8]: 0.00011 µM; Kd [9]: > 3.5 µM; Kd [1, 10]: 0.057 µM
